Source: publication PMC8389677, “Time-Resolved Studies of Ytterbium Distribution at Interfacial Surfaces of Ferritin-like Dps Protein Demonstrate Metal Uptake and Storage Pathways” (Biomedicines, 2021)

Target: the molecule itself
Experiment: crystal structure; apo-LiDps crystals (hanging drop, 100 mM HEPES pH 7.5, 12.5-20.0% PEG 1500, 21 °C) soaked 30 or 120 min in 10 mM YbCl3; space group P41212 with six monomers in the asymmetric unit; data at 100 K

B1: Listeria innocua Dps (DNA binding protein from starved cells) (natural protein)
chain: MKTINSVDTKEFLNHQVANLNVFTVKIHQIHWYMRGHNFFTLHEKMDDLYSEFGEQMDEVAERLLAIGGSPFSTLKEFLENASVEEAPYTKPKTMDQLMEDLVGTLELLRDEYKQGIELTDKEGDDVTNDMLIAFKASIDKHIWMFKAFLGKAPLE
notes: Dps (ferritin-like protein) of Listeria innocua; Homo-dodecameric cage; Crystals in space group P41212 have six monomers in the asymmetric unit; Crystals were soaked with 10 mM YbCl3 for 30 or 120 min; PDB 1QGH was the search model for molecular replacement; also called LiDps; Apo-Dps; copies: 12
stoichiometry N: 12
